T1: T61A
T1 sequence (chain, by the resolver, C terminal GFP fusion, not carried in the letters): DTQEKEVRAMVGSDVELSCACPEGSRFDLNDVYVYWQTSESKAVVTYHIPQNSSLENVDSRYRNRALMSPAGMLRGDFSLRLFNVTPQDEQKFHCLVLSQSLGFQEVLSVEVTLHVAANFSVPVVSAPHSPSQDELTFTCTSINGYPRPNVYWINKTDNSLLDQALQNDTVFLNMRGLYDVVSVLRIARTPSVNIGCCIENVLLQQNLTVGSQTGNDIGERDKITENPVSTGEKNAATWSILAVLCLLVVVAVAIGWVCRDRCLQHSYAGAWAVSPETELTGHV

T2: human B7-H7Ig fusion protein (human, UniProt Q9UM44 23-344)
T2 construct: not shown: Ig Fc tag; made from pMIgV or pHIgV plasmid and detected with anti-mouse Ig
T2 sequence: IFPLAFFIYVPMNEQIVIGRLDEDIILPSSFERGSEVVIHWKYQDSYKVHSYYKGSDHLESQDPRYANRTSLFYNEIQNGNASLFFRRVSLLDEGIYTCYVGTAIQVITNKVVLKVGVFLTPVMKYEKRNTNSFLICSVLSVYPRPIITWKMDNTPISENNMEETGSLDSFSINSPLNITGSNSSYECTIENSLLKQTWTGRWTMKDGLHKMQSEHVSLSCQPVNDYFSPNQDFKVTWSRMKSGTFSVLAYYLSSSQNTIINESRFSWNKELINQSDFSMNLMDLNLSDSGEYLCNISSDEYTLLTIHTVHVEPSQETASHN

T3: PD-1 (Mus musculus, UniProt Q02242)
T3 sequence (membrane protein, looked up): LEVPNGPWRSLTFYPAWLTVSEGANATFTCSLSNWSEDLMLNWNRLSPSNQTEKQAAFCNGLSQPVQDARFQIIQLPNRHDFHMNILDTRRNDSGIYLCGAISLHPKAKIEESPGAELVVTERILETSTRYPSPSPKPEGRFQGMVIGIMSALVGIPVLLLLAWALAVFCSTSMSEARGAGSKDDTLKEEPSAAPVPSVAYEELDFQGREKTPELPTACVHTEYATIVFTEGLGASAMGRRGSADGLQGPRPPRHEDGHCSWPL

T4: B7-DC (Mus musculus, UniProt Q9WUL5)
T4 sequence (membrane protein, looked up): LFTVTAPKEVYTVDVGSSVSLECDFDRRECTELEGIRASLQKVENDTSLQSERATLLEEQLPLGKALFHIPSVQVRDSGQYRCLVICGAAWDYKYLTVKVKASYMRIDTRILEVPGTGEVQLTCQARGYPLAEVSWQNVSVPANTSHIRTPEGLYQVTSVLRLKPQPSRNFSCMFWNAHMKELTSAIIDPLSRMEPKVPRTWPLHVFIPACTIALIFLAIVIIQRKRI

T5: ICOS (Mus musculus, UniProt Q9WVS0)
T5 sequence (membrane protein, looked up): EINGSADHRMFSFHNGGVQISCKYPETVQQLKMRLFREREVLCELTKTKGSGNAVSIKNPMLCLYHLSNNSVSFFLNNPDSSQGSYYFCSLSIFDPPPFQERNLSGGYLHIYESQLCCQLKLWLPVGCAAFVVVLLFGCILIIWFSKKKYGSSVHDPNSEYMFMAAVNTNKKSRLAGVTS

T6: B7-2
T6 chain: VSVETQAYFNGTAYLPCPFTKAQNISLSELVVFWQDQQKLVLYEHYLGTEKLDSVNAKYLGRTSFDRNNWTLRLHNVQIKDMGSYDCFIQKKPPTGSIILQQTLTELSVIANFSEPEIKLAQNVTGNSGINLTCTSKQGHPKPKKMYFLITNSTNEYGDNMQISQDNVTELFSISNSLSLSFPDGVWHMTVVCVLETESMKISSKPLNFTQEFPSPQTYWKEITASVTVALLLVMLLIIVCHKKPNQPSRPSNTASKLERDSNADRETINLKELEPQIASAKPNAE

T7: B7-1
T7 chain: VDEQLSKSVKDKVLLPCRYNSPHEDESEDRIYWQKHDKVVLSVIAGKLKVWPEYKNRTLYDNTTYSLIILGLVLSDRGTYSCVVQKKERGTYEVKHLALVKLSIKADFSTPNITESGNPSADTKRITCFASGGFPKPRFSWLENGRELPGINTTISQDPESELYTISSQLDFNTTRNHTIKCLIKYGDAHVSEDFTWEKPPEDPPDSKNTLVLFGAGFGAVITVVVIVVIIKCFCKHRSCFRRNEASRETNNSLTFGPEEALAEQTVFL

T8: CD28 (Mus musculus, UniProt P31041)
T8 sequence (membrane protein, looked up): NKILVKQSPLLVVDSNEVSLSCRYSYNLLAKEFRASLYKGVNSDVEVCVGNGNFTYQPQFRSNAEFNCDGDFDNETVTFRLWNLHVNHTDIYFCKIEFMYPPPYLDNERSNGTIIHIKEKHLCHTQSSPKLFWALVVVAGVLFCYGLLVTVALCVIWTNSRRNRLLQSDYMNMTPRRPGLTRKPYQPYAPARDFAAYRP

T9: mouse B7-H2, full length, expressed on 293T cells (mouse, UniProt Q9JHJ8 44-322)
T9 construct: whole, on cells
T9 sequence (looked up): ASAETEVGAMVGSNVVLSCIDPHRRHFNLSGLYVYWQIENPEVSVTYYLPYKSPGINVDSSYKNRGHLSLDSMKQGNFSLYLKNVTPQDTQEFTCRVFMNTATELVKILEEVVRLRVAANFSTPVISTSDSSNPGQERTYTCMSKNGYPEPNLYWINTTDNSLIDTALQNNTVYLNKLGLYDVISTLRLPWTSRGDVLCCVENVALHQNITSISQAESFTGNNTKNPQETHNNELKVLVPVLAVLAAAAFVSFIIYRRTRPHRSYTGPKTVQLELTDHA

T10: mouse B7-H2/hB7-H2IgV chimera, expressed on 293T cells (human; mouse, UniProt Q9JHJ8 150-322)
T10 construct: range 150-C-terminus; Mouse B7-H2 Ig V region (Met1-Val149) replaced with the corresponding human region (Met1-Gln123) in the mouse B7-H2 full length gene; also called chimeric gene product
T10 sequence: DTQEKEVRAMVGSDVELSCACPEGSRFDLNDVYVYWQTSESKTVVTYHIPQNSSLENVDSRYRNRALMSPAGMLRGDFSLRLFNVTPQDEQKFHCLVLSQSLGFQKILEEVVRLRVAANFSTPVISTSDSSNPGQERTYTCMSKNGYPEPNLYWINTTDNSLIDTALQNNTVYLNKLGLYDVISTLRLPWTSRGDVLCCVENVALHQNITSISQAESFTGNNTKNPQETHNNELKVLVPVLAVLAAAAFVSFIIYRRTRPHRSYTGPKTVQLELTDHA

B1: human B7-H7CR, full length, expressed on 293T cells (B7-H7CR+293T cells) (receptor)
chain: LSVQQGPNLLQVRQGSQATLVCQVDQATAWERLRVKWTKDGAILCQPYITNGSLSLGVCGPQGRLSWQAPSHLTLQLDPVSLNHSGAYVCWAAVEIPELEEAEGNITRLFVDPDDPTQNRNRIASFPGFLFVLLGVGSMGVAAIVWGAWFWGRRSCQQRDSGNSPGNAFYSNVLYRPRGAPKKSEDCSGEGKDQRGQSIYSTSFPQPAPRQPHLASRPCPSPRPCPSPRPGHPVSMVRVSPRPSPTQQPRPKGFPKVGEE
notes: This id also stands for B7-H7CR on human CD4+ T cells in the functional rows; also called TMIGD2; B7-H7R
B2: B7-2Ig (Fc fusion)
chain: VSVETQAYFNGTAYLPCPFTKAQNISLSELVVFWQDQQKLVLYEHYLGTEKLDSVNAKYLGRTSFDRNNWTLRLHNVQIKDMGSYDCFIQKKPPTGSIILQQTLTELSVIANFSEPEIKLAQNVTGNSGINLTCTSKQGHPKPKKMYFLITNSTNEYGDNMQISQDNVTELFSISNSLSLSFPDGVWHMTVVCVLETESMKISSKPLNFTQEFPSPQTYWK
notes: also called mouse B7-2Ig fusion protein; not shown: Ig (Fc) part and any linker of the R&D Systems fusion protein
B3: mouse CD28Ig fusion protein (Fc fusion, UniProt P31041 20-149, looked up)
chain: NKILVKQSPLLVVDSNEVSLSCRYSYNLLAKEFRASLYKGVNSDVEVCVGNGNFTYQPQFRSNAEFNCDGDFDNETVTFRLWNLHVNHTDIYFCKIEFMYPPPYLDNERSNGTIIHIKEKHLCHTQSSPK
notes: Bought from R&D Systems; Ig (Fc) part not given
B4: B7-1Ig (Fc fusion)
chain: VDEQLSKSVKDKVLLPCRYNSPHEDESEDRIYWQKHDKVVLSVIAGKLKVWPEYKNRTLYDNTTYSLIILGLVLSDRGTYSCVVQKKERGTYEVKHLALVKLSIKADFSTPNITESGNPSADTKRITCFASGGFPKPRFSWLENGRELPGINTTISQDPESELYTISSQLDFNTTRNHTIKCLIKYGDAHVSEDFTWEKPPEDPPDSKN
notes: also called mouse B7-1Ig fusion protein; not shown: Ig (Fc) part and any linker of the R&D Systems fusion protein

Columns and labels:
[1] = molecular target: human CD28, full length, expressed on cells (CD28+293T cells) (human) (UniProt P10747); test: cell-based or functional assay
T61A = molecular target: T1, T61A; test: flow cytometry on 293T cells expressing B7-H2-GFP mutants; normalised to wild type B7-H2 (100%) and vector control (0%)
[2] = molecular target: T2, human B7-H7Ig fusion protein; test: CDS screen: 384-well plate of 293T cells, one human transmembrane gene a well; B7-H7Ig plus anti-mIg FMAT blue; total fluorescence per well
PD-1 = molecular target: T3, PD-1; test: CDS well image, 293T cells transfected with the mouse gene, stained with the mouse fusion protein
B7-DC = molecular target: T4, B7-DC; test: as above
B7-H1 = B7-H1 (Mus musculus, UniProt Q9EP73); test: as above
ICOS = molecular target: T5, ICOS; test: as above
B7-2 = molecular target: T6, B7-2; test: as above
CTLA-4 = CTLA-4 (Mus musculus, UniProt P09793); test: as above
B7-1 = molecular target: T7, B7-1; test: as above
CD28 = molecular target: T8, CD28; test: as above
[3] = molecular target: T9, mouse B7-H2, full length, expressed on …; test: as above
[4] = molecular target: T10, mouse B7-H2/hB7-H2IgV chimera, …; test: flow cytometry, 293T cells expressing the mouse B7-H2/hB7-H2IgV chimera (mB7-H2/hB7-H2IgV+ 293T)
Experimental: FIGS. 19A-19B. […] The results were analyzed by flow cytometry.

Chain of B7-H1 (Q9EP73 19-290 limits assumed): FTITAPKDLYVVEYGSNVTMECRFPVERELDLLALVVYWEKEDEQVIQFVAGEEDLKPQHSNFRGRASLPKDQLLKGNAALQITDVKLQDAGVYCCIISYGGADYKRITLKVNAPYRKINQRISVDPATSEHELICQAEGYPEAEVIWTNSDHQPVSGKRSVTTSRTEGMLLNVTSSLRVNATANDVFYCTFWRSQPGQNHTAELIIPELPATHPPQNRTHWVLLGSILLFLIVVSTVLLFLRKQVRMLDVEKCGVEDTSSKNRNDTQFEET
Chain of human CD28, full length, expressed on cells (CD28+293T cells) (human) (P10747 19-220): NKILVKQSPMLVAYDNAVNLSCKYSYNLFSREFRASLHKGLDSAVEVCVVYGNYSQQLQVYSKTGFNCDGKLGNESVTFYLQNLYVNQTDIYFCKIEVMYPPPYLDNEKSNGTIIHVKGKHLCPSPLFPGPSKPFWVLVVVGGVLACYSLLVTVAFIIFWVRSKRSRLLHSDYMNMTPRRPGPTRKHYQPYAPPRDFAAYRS

Row | Molecule | binding result (PD-1) | binding result (B7-DC) | binding result (B7-H1) | binding result (ICOS) | binding result (B7-2) | binding result (CTLA-4) | binding result (B7-1) | binding result (CD28) | binding result [3] | further results
1 | mouse anti-human CD28 mAb CD28.6 (blocking) (antibody) |  |  |  |  |  |  |  |  |  | tetanus toxoid-elicited proliferation of memory T cells; inhibition [1]: > 50%
2 | human CTLA4Ig fusion protein (from UniProt P16410 37-162) (Fc fusion) |  |  |  |  |  |  |  |  |  | Binding Percentage% (T61A): 32.1%
3 | B1 |  |  |  |  |  |  |  |  |  | binding result [2]: binds
4 | B2 | no binding | no binding | no binding | no binding | no binding | binds | no binding | binds | no binding | 
5 | B3 | no binding | no binding | no binding | no binding |  | no binding |  | no binding | no binding | binding result [4]: binds
6 | B4 | no binding | no binding |  | no binding | no binding |  | no binding |  | no binding | 

— US20120219559A1 (Johns Hopkins, published 2012)
